# Test system: K4 kissing-loop RNA reporter
# Assay: apparent KD of K4 kissing-loop reporter; higher = weaker reporter binding
# Details: Eterna round: R107
# Procedure: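 RNA-MaP round R107: designed RNA switches with theophylline, tryptophan, arginine or FMN aptamers are transcribed on-chip within common flanks. They are titrated with a labelled K4 kissing-loop RNA reporter in RNA-MaP buffer (100 mM Tris pH 7.5, 80 mM KCl, 4 mM MgCl2), without ligand or with the indicated ligand. Median apparent KD per design.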
# [1] = input ligand: theophylline 20 uM
# [2] = input ligand: tryptophan 2.4 mM
# 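Note: bound reporter read as fluorescence of individual clusters on recovered sequencing chips by microscopy, with normalized cluster intensities fitted with a binding model.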
Sequence,apparent KD of K4 kissing-loop reporter (input ligand: FMN 200 uM),apparent KD of K4 kissing-loop reporter (input ligand: arginine 13.2 mM),apparent KD of K4 kissing-loop reporter (input ligand: none),apparent KD of K4 kissing-loop reporter [1],apparent KD of K4 kissing-loop reporter [2]
ACGGGCGGCUGAAGGAGCGGGCGGGCCCGAGUGAUGUUCGGGUGGGCCGUGAGGUCCGGAGCCCAGGUAGGUCGCGGUUCCGCCU [#2 Same State - Arginine B Attempt #14 (HarryS)],157 nM,119 nM,152 nM,197 nM,181 nM
ACGUAGCAGGCGGCCGCCACUCCGCAUAUGGAUCUCGAGUGAUGUUUGAGGGUGCCCAUCACAGCGAGGACCGGGCCAAUUAAGC [theeternabot_sameState_KL_Trp_B_10],86.2 nM,105 nM,127 nM,179 nM,254 nM
ACGUAUAUCAGAGGAUAUCGUAUUAAUAUUUUAUCUAUAUAUUAUAGCAGUGAUGUUGCAAUUAUUCGAGAAGGCUGAUUUACGA [JR_SSFMNB_Sub023],144 nM,170 nM,139 nM,194 nM,100 nM
ACGUCCCGUUUACUCGUGGGUUAGGUCGAUACCAGUAUUCAAACUUACCCUUGGCAGCGACAUGAGUGAUGUUCAUGUGCGAAGA [KL-XTheo-A5 #analogue],114 nM,96.2 nM,108 nM,108 nM,104 nM
ACGUCCGGAUUGAUCGUGGGCAUGGUCGAUACCAGUAGUUUAAUCUACCCUUGGCAGCGACAUGAGUGAUGUUCAUGUGCGAUGA [KL-XTheo-A7 #analogue],185 nM,164 nM,173 nM,350 nM,185 nM
ACUGGAAUUGUACUCCAGUGAUGUUGGAGGCAGGAUAUCCAGUAAAGGAGAAGGGCCAUCGCGCUAUUUGGCCGCAGGCGGCCAG [Acela],147 nM,113 nM,128 nM,177 nM,150 nM
AGAAAGAAGGCGGCCGCCACUCUGAUGGGCGAAAGCCCAUUUUUUUAGCAGUGAUGUUGCUUGUUGAGGACCGGGCCAAAGAAAU [2nd],179 nM,174 nM,155 nM,193 nM,114 nM
AGAACUGUCUGAGAUACCAGCCAUAGGAGUGAUGUUCCUAGCUCCACAAAGUGGAGCCAUGGCCCUUGGCAGCUCAGACAGUUCA [Omei KL Theo B SS A v8],219 nM,191 nM,219 nM,133 nM,206 nM
AGACAUAUGACUGUAUGUUUCCAAGGUGUCAAGGAUAUAGUAAACACUAGAAGGUGAGAUCACAGGAGUGAUGUUCGAAAAUGGA [theeternabot_sameState_KL_FMN_A_14],419 nM,208 nM,237 nM,233 nM,248 nM
AGACCACAAAGUGGUCAGUGUUCGCUGCAGCGAGGACCGGUACGGCCGCCACUCGCGAGUGAUGUUCGCGAGAGCAGCGAACACA [Omei KL Tryp A Exc A v6],90.9 nM,83.4 nM,82.1 nM,87.3 nM,116 nM
AGACUACCACACUGUCAAUAGACAGUGAGCUAGGAUAUGCUGAUAAGCAGAAGGAGUGAUGUUCCAAGGUAGUCAAUAAAAUAAU [FmnAX 13 G29+A66],209 nM,203 nM,221 nM,267 nM,209 nM
AGACUACCACACUGUCAAUAGACAGUGGACUAGGAUAUGCUGAUAAGCAGAAGGAGUGAUGUUCCAAGGUAGUCAAUAAAAUAAU [FmnAX 13 G28+A66],294 nM,257 nM,309 nM,396 nM,279 nM
AGACUACCACACUGUCAAUAGACAGUGUACUAGGAUAUGCUGAUAAGCAGAAGGAGUGAUGUUCCUGGGUAGUCAAUAAAAUAAU [FmnAX 13 U28+G67],507 nM,388 nM,486 nM,514 nM,404 nM
AGACUACUGAUAGGAUAUAACAUACUAACUCGUAUACCAAAGGUAUACGAGACCCUUCUAGUGAUGUUAGAAGGGUCGGUAGUCA [Omei KL FMN B Exc B v6],82.2 nM,74 nM,76.3 nM,74.8 nM,73.9 nM
AGAGUUAUGCGAGGAUAUGCGGUUAGUACUCAAAGAGUACUAACAGCAGAGUGAUGUUCUGUGAAAGCAGAAGGUGCAUAACUCA [Omei KL FMN B SS B v10],153 nM,1060 nM,1040 nM,1120 nM,1320 nM
AGAGUUAUGCGAGGAUAUGCGGUUAGUACUCAAAGAGUACUAACGGCAGAGUGAUGUUCUGUGAAAGCAGAAGGUGCAUAACUCA [Omei KL FMN B SS B v9],274 nM,523 nM,1090 nM,327 nM,1360 nM
AGAUUCGACACGGCCGCCACUCGUGGUGGAUUACCUAGUGUCGAAGUUGAGUGAUGUUCAACUACGAGGACCGGGUGUUGAGUCU [KL-XTryp-B7 #analogue],253 nM,161 nM,215 nM,211 nM,448 nM
AGAUUCUUUUUUUUAUUUAAGUUUUCAGAAGGAGCGUGGUAGUACACAGGUAGGUCGCUGAAUUUUGGGCUAGUGAUGUUAGUUA [whbob_SS_Arginine_A_sa115],180 nM,188 nM,221 nM,231 nM,135 nM
AGCGAUGUUUUCUCUAGGAGUGAUGUUUUUCGAGGACCGGUACGGCCGCCACUCGGACGACGAGUGUGGUAGUGGGCUGUUGACU [ffmullin],483 nM,296 nM,441 nM,231 nM,493 nM
AGGAAGUGAGAAGGAUAUUACACUCGGAAGCGCUAGUGAUGUUAGCAUAGAAACAAGGGAACAUGGUAAGAAGGUCUUACAAUGA [theeternabot_sameState_KL_FMN_B_2],76.6 nM,71.6 nM,38.9 nM,69.5 nM,40.1 nM
AGGAUCACGUCAGUGAUGUUGACAAGAGAUACCAGAGACGAAAGUCUCCCUUGGCAGCUCAUCGUGAUCCGUGACAAAGGUCACA [Omei KL hio A SS C v3],262 nM,135 nM,143 nM,155 nM,189 nM
